{"source": "paper PMC7299280", "key": {"[1]": {"target": "SARS-CoV-2 spike (S) protein, recombinant (SARS-CoV-2) (UniProt P0DTC2)"}, "[2]": {"target": "SARS-CoV-2 spike (S) protein, recombinant (SARS-CoV-2) (UniProt P0DTC2)", "remark": "listed apart in the source"}}, "data": [{"substance": "CC12.23 (antibody)", "values": [{"measurement": "IC50 neutralization (pseudovirus)", "setting": "[1]", "result": 22, "unit": "µg/mL"}]}, {"substance": "CC6.33 (antibody)", "values": [{"measurement": "neutralization IC50 of SARS-CoV-2 pseudovirus (complete neutralization)", "setting": "[2]", "result": 0.039, "unit": "µg/mL"}]}, {"substance": "CC12.1 (antibody)", "values": [{"measurement": "in vitro IC50 neutralization against pseudovirus; pair blocked: S with ACE2", "setting": "[1]", "result": 0.019, "unit": "µg/mL"}]}]}
